Results: the supplement of paper PMC5998384

How the values were obtained:
HeLa Kyoto [1] = assay: solubility change mitosis vs G1/S (difference of NP-40 vs SDS log2 ratios) (log2 ratio difference); higher = more soluble in mitosis
HeLa Kyoto [2] = assay: solubility in G1/S (NP-40 vs SDS abundance) (log2 ratio); higher = more soluble; conditions: cell cycle stage: G1/S
HeLa Kyoto [3] = assay: melting temperature (median over replicates), in situ; higher = more thermally stable
HeLa Kyoto [4] = assay: thermal stability score vs G1/S (z-score of summed log2 fold changes over temperatures); higher = more thermally stable than in G1/S
[5] = cell cycle stage: early G1 (4.5 h after nocodazole release)
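Throughout, for melting temperature (median over replicates), in situ: HeLa Kyoto cells synchronized by double thymidine or nocodazole block, proteins quantified by TMT10plex mass spectrometry, three independent biological replicates.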
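Throughout, for solubility change mitosis vs G1/S (difference of NP-40 vs SDS log2 ratios): synchronized HeLa Kyoto cells (double thymidine block for G1/S, nocodazole release for mitosis), protein amounts in NP-40 versus SDS lysates quantified by mass spectrometry, three biological replicates.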
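Throughout, for solubility in G1/S (NP-40 vs SDS abundance): HeLa Kyoto cells arrested at G1/S by double thymidine block, proteins quantified by TMT10plex mass spectrometry in mild NP-40 versus SDS extracts, three biological replicates.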
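Throughout, for thermal stability score vs G1/S (z-score of summed log2 fold changes over temperatures): synchronized HeLa Kyoto cells, proteins quantified by TMT10plex mass spectrometry, three biological replicates, mitosis taken 0.5 h after nocodazole release, G1/S directly after double thymidine block.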

Substance | solubility change mitosis (log2) (HeLa Kyoto [1]) | solubility in G1/S (log2) (HeLa Kyoto [2]) | melting temperature (HeLa Kyoto [3]; cell cycle stage: G1/S) | melting temperature (HeLa Kyoto [3]; cell cycle stage: mitosis) | thermal stability score (HeLa Kyoto [4]; [5]) | thermal stability score (HeLa Kyoto [4]; cell cycle stage: mitosis)
MEGGGGSGNKTTGGLAGFFGAGGAGYSHADLAGVPLTGMNPLSPYLNVDPRYLVQDTDEFILPTGANKTRGRFELAFFTIGGCCMTGAAFGAMNGLRLGLKETQNMAWSKPRNVQILNMVTRQGALWANTLGSLALLYSAFGVIIEKTRGAEDDLNTVAAGTMTGMLYKCTGGLRGIARGGLTGLTLTSLYALYNNWEHMKGSLLQQSL [TIMM23] | -0.145 | 0.455 | 57.3 °C | 55.6 °C | -1.18 | -2.03
MAGAQPGVHALQLEPPTVVETLRRGSKFIKWDEETSSRNLVTLRVDPNGFFLYWTGPNMEVDTLDISSIRDTRTGRYARLPKDPKIREVLGFGGPDARLEEKLMTVVSGPDPVNTVFLNFMAVQDDTAKVWSEELFKLAMNILAQNASRNTFLRKAYTKLKLQVNQDGRIPVKNILKMFSADKKRVETALESCGLKFNRSESIRPDEFSLEIFERFLNKLCLRPDIDKILLEIGAKGKPYLTLEQLMDFINQKQRDPRLNEVLYPPLRPSQARLLIEKYEPNQQFLERDQMSMEGFSRYLGGEENGILPLEALDLSTDMTQPLSAYFINSSHNTYLTAGQLAGTSSVEMYRQALLWGCRCVELDVWKGRPPEEEPFITHGFTMTTEVPLRDVLEAIAETAFKTSPYPVILSFENHVDSAKQQAKMAEYCRSIFGDALLIEPLDKYPLAPGVPLPSPQDLMGRILVKNKKRHRPSAGGPDSAGRKRPLEQSNSALSESSAATEPSSPQLGSPSSDSCPGLSNGEEVGLEKPSLEPQKSLGDEGLNRGPYVLGPADREDEEEDEEEEEQTDPKKPTTDEGTASSEVNATEEMSTLVNYIEPVKFKSFEAARKRNKCFEMSSFVETKAMEQLTKSPMEFVEYNKQQLSRIYPKGTRVDSSNYMPQLFWNVGCQLVALNFQTLDVAMQLNAGVFEYNGRSGYLLKPEFMRRPDKSFDPFTEVIVDGIVANALRVKVISGQFLSDRKVGIYVEVDMFGLPVDTRRKYRTRTSQGNSFNPVWDEEPFDFPKVVLPTLASLRIAAFEEGGKFVGHRILPVSAIRSGYHYVCLRNEANQPLCLPALLIYTEASDYIPDDHQDYAEALINPIKHVSLMDQRARQLAALIGESEAQAGQETCQDTQSQQLGSQPSSNPTPSPLDASPRRPPGPTTSPASTSLSSPGQRDDLIASILSEVAPTPLDELRGHKALVKLRSRQERDLRELRKKHQRKAVTLTRRLLDGLAQAQAEGRCRLRPGALGGAADVEDTKEGEDEAKRYQEFQNRQVQSLLELREAQVDAEAQRRLEHLRQALQRLREVVLDANTTQFKRLKEMNEREKKELQKILDRKRHNSISEAKMRDKHKKEAELTEINRRHITESVNSIRRLEEAQKQRHDRLVAGQQQVLQQLAEEEPKLLAQLAQECQEQRARLPQEIRRSLLGEMPEGLGDGPLVACASNGHAPGSSGHLSGADSESQEENTQL [PLCB3] | 0.0123 | 0.0201 | 52.7 °C | 51.7 °C | 0.256 | -0.25
MDTKEEKKERKQSYFARLKKKKQAKQNAETASAVATRTHTGKEDNNTVVLEPDKCNIAVEEEYMTDEKKKRKSNQLKEIRRTELKRYYSIDDNQNKTHDKKEKKMVVQKPHGTMEYTAGNQDTLNSIALKFNITPNKLVELNKLFTHTIVPGQVLFVPDANSPSSTLRLSSSSPGATVSPSSSDAEYDKLPDADLARKALKPIERVLSSTSEEDEPGVVKFLKMNCRYFTDGKGVVGGVMIVTPNNIMFDPHKSDPLVIENGCEEYGLICPMEEVVSIALYNDISHMKIKDALPSDLPQDLCPLYRPGEWEDLASEKDINPFSKFKSINKEKRQQNGEKIMTSDSRPIVPLEKSTGHTPTKPSGSSVSEKLKKLDSSRETSHGSPTVTKLSKEPSDTSSAFESTAKENFLGEDDDFVDLEELSSQTGGGMHKKDTLKECLSLDPEERKKAESQINNSAVEMQVQSALAFLGTENDVELKGALDLETCEKQDIMPEVDKQSGSPESRVENTLNIHEDLDKVKLIEYYLTKNKEGPQVSENLQKTELSDGKSIEPGGIDITLSSSLSQAGDPITEGNKEPDKTWVKKGEPLPVKLNSSTEANVIKEALDSSLESTLDNSCQGAQMDNKSEVQLWLLKRIQVPIEDILPSKEEKSKTPPMFLCIKVGKPMRKSFATHTAAMVQQYGKRRKQPEYWFAVPRERVDHLYTFFVQWSPDVYGKDAKEQGFVVVEKEELNMIDNFFSEPTTKSWEIITVEEAKRRKSTCSYYEDEDEEVLPVLRPHSALLENMHIEQLARRLPARVQGYPWRLAYSTLEHGTSLKTLYRKSASLDSPVLLVIKDMDNQIFGAYATHPFKFSDHYYGTGETFLYTFSPHFKVFKWSGENSYFINGDISSLELGGGGGRFGLWLDADLYHGRSNSCSTFNNDILSKKEDFIVQDLEVWAFD [NCOA7] | -0.15 | 0.0391 | 51 °C | 50.9 °C | -0.286 | -0.429
MNPESSIFIEDYLKYFQDQVSRENLLQLLTDDEAWNGFVAAAELPRDEADELRKALNKLASHMVMKDKNRHDKDQQHRQWFLKEFPRLKRELEDHIRKLRALAEEVEQVHRGTTIANVVSNSVGTTSGILTLLGLGLAPFTEGISFVLLDTGMGLGAAAAVAGITCSVVELVNKLRARAQARNLDQSGTNVAKVMKEFVGGNTPNVLTLVDNWYQVTQGIGRNIRAIRRARANPQLGAYAPPPHVIGRISAEGGEQVERVVEGPAQAMSRGTMIVGAATGGILLLLDVVSLAYESKHLLEGAKSESAEELKKRAQELEGKLNFLTKIHEMLQPGQDQ [APOL2] | 0.0238 | 0.309 | 50 °C | 50.8 °C | 4.12 | 3.26
MATQAYTELQAAPPPSQPPQAPPQAQPQPPPPPPPAAPQPPQPPTAAATPQPQYVTELQSPQPQAQPPGGQKQYVTELPAVPAPSQPTGAPTPSPAPQQYIVVTVSEGAMRASETVSEASPGSTASQTGVPTQVVQQVQGTQQRLLVQTSVQAKPGHVSPLQLTNIQVPQQALPTQRLVVQSAAPGSKGGQVSLTVHGTQQVHSPPEQSPVQANSSSSKTAGAPTGTVPQQLQVHGVQQSVPVTQERSVVQATPQAPKPGPVQPLTVQGLQPVHVAQEVQQLQQVPVPHVYSSQVQYVEGGDASYTASAIRSSTYSYPETPLYTQTASTSYYEAAGTATQVSTPATSQAVASSGSMPMYVSGSQVVASSTSTGAGASNSSGGGGSGGGGGGGGGGGGGGSGSTGGGGSGAGTYVIQGGYMLGSASQSYSHTTRASPATVQWLLDNYETAEGVSLPRSTLYCHYLLHCQEQKLEPVNAASFGKLIRSVFMGLRTRRLGTRGNSKYHYYGLRIKASSPLLRLMEDQQHMAMRGQPFSQKQRLKPIQKMEGMTNGVAVGQQPSTGLSDISAQVQQYQQFLDASRSLPDFTELDLQGKVLPEGVGPGDIKAFQVLYREHCEAIVDVMVNLQFTLVETLWKTFWRYNLSQPSEAPPLAVHDEAEKRLPKAILVLLSKFEPVLQWTKHCDNVLYQGLVEILIPDVLRPIPSALTQAIRNFAKSLESWLTHAMVNIPEEMLRVKVAAAGAFAQTLRRYTSLNHLAQAARAVLQNTAQINQMLSDLNRVDFANVQEQASWVCRCEDRVVQRLEQDFKVTLQQQNSLEQWAAWLDGVVSQVLKPYQGSAGFPKAAKLFLLKWSFYSSMVIRDLTLRSAASFGSFHLIRLLYDEYMYYLIEHRVAQAKGETPIAVMGEFANLATSLNPLDPDKDEEEEEEEESEDELPQDISLAAGGESPALGPETLEPPAKLARTDARGLFVQALPSS [RFX1] | -0.21 | -0.00333 | 53.3 °C | 53 °C | -1.2 | -2.15
MSDKDDIETPLLTEAAPILEDGNCEPAKNSESVDQGAKPESKSEPVVSTRKRPETKPSSDLETSKVLPIQDNVSKDVPQTRWGYWGSWGKSILSSASATVATVGQGISNVIEKAETSLGIPGPSEISTEVKYVAGETNAKENENSSPVAGAFGVFSTISTAVQSTGKSVISGGLDALEFIGKKTMDVIAEGDPGFKRTKGLMNRNATLSQVLREAKEKEEIRTSNEVTVETDKKTHYGLLFDEFQGLSHLEALEMLSQESEIKVKSILNSLSGEELETLKVELEQLKETFSLAEFCEEEEEEKKGDEDFTKDITELFSQLHVSSKPEKLARARNTAHEWIRKSLTKPLAENEEGEKQSEAENTEQVNKNSIEDIHAFAIRSLAELTACSIELFHKTAALVLHGRKQEVTAIERSQTLSQMTIVLCKELSSLSKEFTTCLTTAGVKEMADVLNPLITAVFLEASNSASYIQDAFQLLLPVLEISLIENKIESHRHELQGQKPLLEH [FAM114A2] | -0.0154 | 0.326 | 52.3 °C | 52 °C | 0.464 | 0.0988
MAAPMTPAARPEDYEAALNAALADVPELARLLEIDPYLKPYAVDFQRRYKQFSQILKNIGENEGGIDKFSRGYESFGVHRCADGGLYCKEWAPGAEGVFLTGDFNGWNPFSYPYKKLDYGKWELYIPPKQNKSVLVPHGSKLKVVITSKSGEILYRISPWAKYVVREGDNVNYDWIHWDPEHSYEFKHSRPKKPRSLRIYESHVGISSHEGKVASYKHFTCNVLPRIKGLGYNCIQLMAIMEHAYYASFGYQITSFFAASSRYGTPEELQELVDTAHSMGIIVLLDVVHSHASKNSADGLNMFDGTDSCYFHSGPRGTHDLWDSRLFAYSSWEILRFLLSNIRWWLEEYRFDGFRFDGVTSMLYHHHGVGQGFSGDYSEYFGLQVDEDALTYLMLANHLVHTLCPDSITIAEDVSGMPALCSPISQGGGGFDYRLAMAIPDKWIQLLKEFKDEDWNMGDIVYTLTNRRYLEKCIAYAESHDQALVGDKSLAFWLMDAEMYTNMSVLTPFTPVIDRGIQLHKMIRLITHGLGGEGYLNFMGNEFGHPEWLDFPRKGNNESYHYARRQFHLTDDDLLRYKFLNNFDRDMNRLEERYGWLAAPQAYVSEKHEGNKIIAFERAGLLFIFNFHPSKSYTDYRVGTALPGKFKIVLDSDAAEYGGHQRLDHSTDFFSEAFEHNGRPYSLLVYIPSRVALILQNVDLPN [GBE1] | -0.104 | -0.184 | 49.7 °C | 49.6 °C | -0.0259 | 0.998
MAAAGQLCLLYLSAGLLSRLGAAFNLDTREDNVIRKYGDPGSLFGFSLAMHWQLQPEDKRLLLVGAPRAEALPLQRANRTGGLYSCDITARGPCTRIEFDNDADPTSESKEDQWMGVTVQSQGPGGKVVTCAHRYEKRQHVNTKQESRDIFGRCYVLSQNLRIEDDMDGGDWSFCDGRLRGHEKFGSCQQGVAATFTKDFHYIVFGAPGTYNWKGIVRVEQKNNTFFDMNIFEDGPYEVGGETEHDESLVPVPANSYLGLLFLTSVSYTDPDQFVYKTRPPREQPDTFPDVMMNSYLGFSLDSGKGIVSKDEITFVSGAPRANHSGAVVLLKRDMKSAHLLPEHIFDGEGLASSFGYDVAVVDLNKDGWQDIVIGAPQYFDRDGEVGGAVYVYMNQQGRWNNVKPIRLNGTKDSMFGIAVKNIGDINQDGYPDIAVGAPYDDLGKVFIYHGSANGINTKPTQVLKGISPYFGYSIAGNMDLDRNSYPDVAVGSLSDSVTIFRSRPVINIQKTITVTPNRIDLRQKTACGAPSGICLQVKSCFEYTANPAGYNPSISIVGTLEAEKERRKSGLSSRVQFRNQGSEPKYTQELTLKRQKQKVCMEETLWLQDNIRDKLRPIPITASVEIQEPSSRRRVNSLPEVLPILNSDEPKTAHIDVHFLKEGCGDDNVCNSNLKLEYKFCTREGNQDKFSYLPIQKGVPELVLKDQKDIALEITVTNSPSNPRNPTKDGDDAHEAKLIATFPDTLTYSAYRELRAFPEKQLSCVANQNGSQADCELGNPFKRNSNVTFYLVLSTTEVTFDTPDLDINLKLETTSNQDNLAPITAKAKVVIELLLSVSGVAKPSQVYFGGTVVGEQAMKSEDEVGSLIEYEFRVINLGKPLTNLGTATLNIQWPKEISNGKWLLYLVKVESKGLEKVTCEPQKEINSLNLTESHNSRKKREITEKQIDDNRKFSLFAERKYQTLNCSVNVNCVNIRCPLRGLDSKASLILRSRLWNSTFLEEYSKLNYLDILMRAFIDVTAAAENIRLPNAGTQVRVTVFPSKTVAQYSGVPWWIILVAILAGILMLALLVFILWKCGFFKRSRYDDSVPRYHAVRIRKEEREIKDEKYIDNLEKKQWITKWNENESYS [ITGA6] | -0.116 | 0.154 | 55.4 °C | 55.6 °C | -2.3 | -1.75
ATG3 | -0.0379 | 0.11 | 54.3 °C | 54.1 °C | 0.129 | -0.694
